Laboratory results reported in patent publication US20080089837A1.

Molecular target: PDGFR-alpha (platelet derived growth factor receptor-alpha) on human osteosarcoma MG-63 cells (human) (UniProt P16234)
Assay: FACS titration on MG-63 cells, nonlinear fit of geometric mean fluorescence; goat anti-mouse detection; 95% CI ±99 pM

PDGFR-alpha (platelet derived growth factor receptor-alpha) on human osteosarcoma MG-63 cells (human), sequence (P16234 24-1089): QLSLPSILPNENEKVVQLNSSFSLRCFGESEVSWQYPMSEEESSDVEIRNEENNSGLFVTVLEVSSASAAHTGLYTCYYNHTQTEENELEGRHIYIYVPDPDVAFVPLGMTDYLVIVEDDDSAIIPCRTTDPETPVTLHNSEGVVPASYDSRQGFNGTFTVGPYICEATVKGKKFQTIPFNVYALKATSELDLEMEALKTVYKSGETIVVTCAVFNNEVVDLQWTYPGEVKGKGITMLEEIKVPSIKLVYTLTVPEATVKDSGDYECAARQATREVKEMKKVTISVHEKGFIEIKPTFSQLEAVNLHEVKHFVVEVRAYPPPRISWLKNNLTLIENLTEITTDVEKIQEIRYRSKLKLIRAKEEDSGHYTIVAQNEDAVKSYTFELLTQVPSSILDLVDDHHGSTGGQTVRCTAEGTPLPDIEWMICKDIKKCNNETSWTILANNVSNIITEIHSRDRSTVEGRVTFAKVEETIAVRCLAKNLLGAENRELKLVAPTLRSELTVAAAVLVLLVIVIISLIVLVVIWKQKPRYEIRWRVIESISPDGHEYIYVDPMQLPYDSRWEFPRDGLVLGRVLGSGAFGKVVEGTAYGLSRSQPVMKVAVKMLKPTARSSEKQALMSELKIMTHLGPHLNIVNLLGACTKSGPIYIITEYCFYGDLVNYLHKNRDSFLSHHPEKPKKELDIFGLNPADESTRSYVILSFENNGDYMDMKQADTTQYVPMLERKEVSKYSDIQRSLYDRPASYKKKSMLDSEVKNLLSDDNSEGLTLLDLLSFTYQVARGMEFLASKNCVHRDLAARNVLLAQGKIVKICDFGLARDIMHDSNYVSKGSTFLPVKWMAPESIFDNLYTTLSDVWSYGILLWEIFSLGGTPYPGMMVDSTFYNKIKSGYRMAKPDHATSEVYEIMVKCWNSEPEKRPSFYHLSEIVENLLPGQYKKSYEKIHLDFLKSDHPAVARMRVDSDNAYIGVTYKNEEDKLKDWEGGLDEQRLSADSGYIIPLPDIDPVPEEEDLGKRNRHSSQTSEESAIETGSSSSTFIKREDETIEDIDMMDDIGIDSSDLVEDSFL

Kd: 0.146 nM
Substance: CD140a control antibody
